One molecule from US20170043014A1 (Novo Nordisk, published 2017) can be followed below.

In this assay the target is Recombinant mouse IL-21 (mouse, UniProt Q9ES17 18-146). In words: capture style ELISA, clone selection. For orientation: ELISA stands for enzyme-linked immunosorbent assay.

B1: Mouse surrogate anti-IL-21 antibody (antibody, IgG1, V domains shown)
VH: EVQLVESGGGLVKPGGSLKLSCAASGFTFNRYSMSWVRQSPEKRLEWVAEISVGGSYTQYVDIVTGRFTISRDNAKNTLYLEMSSLRSEDTAMYYCARLYYSGSGDSYYYAMDYWGQGTSVTVSS
VL: QTVLIQSPAIMSASPGEKVTMTCSASSSVSYMHWYQQKSGTSPKRWIYDTSKLASGVPARFSGSGSGTSYSLTISSMEAEDAATYYCQQWNSNPPTFGGGTKLEMK
notes: mIgG1/kappa isotype
Consider B1, for which the binding result was “binds”.
